Each block holds one binder with its values, some of them ahead of it.
How the values were obtained:
Assay in all cases: BLI Octet, IgG captured on AHC, CD33 analyte;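 further: CD33 variants and wild type run as analyte at 5, 50 and 500 nM, 700 s association then 1200 s dissociation, buffer-only reference subtracted, global 1:1 fit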
[1] = molecular target: human CD33 extracellular region F43S (human, UniProt P20138 18-259)
Procedure: (§1) Human CD33 wt and variants, were used as analyte at 3 different concentrations (500, 50 and 5 nM). Association of the analyte to the antibodies was monitored for 700 s and dissociation of the analyte from the antibodies was monitored for 1200 s. Reference subtraction was performed against buffer only wells. AHC tips were regenerated using 10 mM Glycine-HCl pH 1.7. Data were analyzed with Octet Data Analysis software HT 12.0. Data were fitted to a 1:1 binding model. Kinetic rates ka and kd and response signal were globally fitted.

[2] = molecular target: human CD33 extracellular region F21H (human, UniProt P20138 22-259)
Procedure: as §1

[3] = molecular target: human CD33 extracellular region Y50H_Y49H (human, UniProt P20138 18-259)
Procedure: as §1

[4] = molecular target: human CD33 extracellular region F21M (human, UniProt P20138 22-259)
Procedure: as §1

[5] = molecular target: human CD33 extracellular region W22R (human, UniProt P20138 18-259)
Procedure: as §1

[6] = molecular target: human CD33 extracellular region N20S (human, UniProt P20138 21-259)
Procedure: as §1

[7] = molecular target: human CD33 extracellular region N100Q (human, UniProt P20138 18-259)
Procedure: as §1

[8] = molecular target: human CD33 extracellular region W22E (human, UniProt P20138 18-259)
Procedure: as §1

[9] = molecular target: T1, human CD33 extracellular region, wild type (human, UniProt P20138 18-259)
T1 construct: also called WT; CD33 wt
Procedure: as §1

[10] = molecular target: human CD33 extracellular region N20H (human, UniProt P20138 21-259)
Procedure: as §1

[11] = molecular target: human CD33 extracellular region F44S (human, UniProt P20138 18-259)
Procedure: as §1

[12] = molecular target: human CD33 extracellular region N20K (human, UniProt P20138 21-259)
Procedure: as §1

[13] = molecular target: human CD33 extracellular region P48F (human, UniProt P20138 18-259)
Procedure: as §1

[14] = molecular target: human CD33 extracellular region F21S_W22R (human, UniProt P20138 23-259)
Procedure: as §1

[15] = molecular target: human CD33 extracellular region Y50H (human, UniProt P20138 18-259)
Procedure: as §1

[16] = molecular target: human CD33 extracellular region F21V (human, UniProt P20138 22-259)
Procedure: as §1

[17] = molecular target: human CD33 extracellular region F21I (human, UniProt P20138 22-259)
Procedure: as §1

[18] = molecular target: human CD33 extracellular region Q24R (human, UniProt P20138 18-259)
Procedure: as §1

[19] = molecular target: human CD33 extracellular region N20E (human, UniProt P20138 21-259)
Procedure: as §1

[20] = molecular target: human CD33 extracellular region Y50S (human, UniProt P20138 18-259)
Procedure: as §1

[21] = molecular target: human CD33 extracellular region W22T (human, UniProt P20138 18-259)
Procedure: as §1

[22] = molecular target: human CD33 extracellular region W22K (human, UniProt P20138 18-259)
Procedure: as §1

[23] = molecular target: human CD33 extracellular region H45Y (human, UniProt P20138 18-259)
Sequence of human CD33 extracellular region H45Y (P20138 other isoform, or with tags, fused parts or gaps H45Y H45Y): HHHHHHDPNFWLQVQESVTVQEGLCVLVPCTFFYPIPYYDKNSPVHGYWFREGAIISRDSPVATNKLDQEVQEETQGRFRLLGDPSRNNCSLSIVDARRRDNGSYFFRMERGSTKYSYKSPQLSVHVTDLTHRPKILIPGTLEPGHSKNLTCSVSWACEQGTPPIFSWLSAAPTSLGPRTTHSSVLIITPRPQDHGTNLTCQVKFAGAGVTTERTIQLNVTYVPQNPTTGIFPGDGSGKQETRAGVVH
Procedure: as §1

Sequence of human CD33 extracellular region F21S_W22R (P20138 other isoform, or with tags, fused parts or gaps F21S W22R F21S W22R): as the sequence (P20138 other isoform, or with tags, fused parts or gaps H45Y H45Y) above, with F10S, W11R, Y34H counted along it
Sequence of human CD33 extracellular region W22K (P20138 other isoform, or with tags, fused parts or gaps W22K W22K): as the sequence (P20138 other isoform, or with tags, fused parts or gaps H45Y H45Y) above, with W11K, Y34H counted along it
Sequence of human CD33 extracellular region W22E (P20138 other isoform, or with tags, fused parts or gaps W22E W22E): as the sequence (P20138 other isoform, or with tags, fused parts or gaps H45Y H45Y) above, with W11E, Y34H counted along it
Sequence of human CD33 extracellular region Y50H (P20138 other isoform, or with tags, fused parts or gaps Y50H Y50H): as the sequence (P20138 other isoform, or with tags, fused parts or gaps H45Y H45Y) above, with Y34H, Y39H counted along it
Sequence of human CD33 extracellular region F43S (P20138 other isoform, or with tags, fused parts or gaps F43S F43S): as the sequence (P20138 other isoform, or with tags, fused parts or gaps H45Y H45Y) above, with F32S, Y34H counted along it
Sequence of human CD33 extracellular region F21H (P20138 other isoform, or with tags, fused parts or gaps F21H F21H): as the sequence (P20138 other isoform, or with tags, fused parts or gaps H45Y H45Y) above, with F10H, Y34H counted along it
Sequence of human CD33 extracellular region F21V (P20138 other isoform, or with tags, fused parts or gaps F21V F21V): as the sequence (P20138 other isoform, or with tags, fused parts or gaps H45Y H45Y) above, with F10V, Y34H counted along it
Sequence of human CD33 extracellular region Q24R (P20138 other isoform, or with tags, fused parts or gaps Q24R Q24R): as the sequence (P20138 other isoform, or with tags, fused parts or gaps H45Y H45Y) above, with Q13R, Y34H counted along it
Sequence of human CD33 extracellular region N20E (P20138 other isoform, or with tags, fused parts or gaps N20E N20E): as the sequence (P20138 other isoform, or with tags, fused parts or gaps H45Y H45Y) above, with N9E, Y34H counted along it
Sequence of human CD33 extracellular region N20H (P20138 other isoform, or with tags, fused parts or gaps N20H N20H): as the sequence (P20138 other isoform, or with tags, fused parts or gaps H45Y H45Y) above, with N9H, Y34H counted along it
Sequence of human CD33 extracellular region Y50S (P20138 other isoform, or with tags, fused parts or gaps Y50S Y50S): as the sequence (P20138 other isoform, or with tags, fused parts or gaps H45Y H45Y) above, with Y34H, Y39S counted along it
Sequence of human CD33 extracellular region N20K (P20138 other isoform, or with tags, fused parts or gaps N20K N20K): as the sequence (P20138 other isoform, or with tags, fused parts or gaps H45Y H45Y) above, with N9K, Y34H counted along it
Sequence of human CD33 extracellular region Y50H_Y49H (P20138 other isoform, or with tags, fused parts or gaps Y50H Y49H Y50H Y49H): as the sequence (P20138 other isoform, or with tags, fused parts or gaps H45Y H45Y) above, with Y34H, Y38H, Y39H counted along it
Sequence of human CD33 extracellular region F21I (P20138 other isoform, or with tags, fused parts or gaps F21I F21I): as the sequence (P20138 other isoform, or with tags, fused parts or gaps H45Y H45Y) above, with F10I, Y34H counted along it
Sequence of human CD33 extracellular region F44S (P20138 other isoform, or with tags, fused parts or gaps F44S F44S): as the sequence (P20138 other isoform, or with tags, fused parts or gaps H45Y H45Y) above, with F33S, Y34H counted along it
Sequence of human CD33 extracellular region P48F (P20138 other isoform, or with tags, fused parts or gaps P48F P48F): as the sequence (P20138 other isoform, or with tags, fused parts or gaps H45Y H45Y) above, with Y34H, P37F counted along it
T1 sequence (P20138 other isoform, or with tags, fused parts or gaps): as the sequence (P20138 other isoform, or with tags, fused parts or gaps H45Y H45Y) above, with Y34H counted along it
Sequence of human CD33 extracellular region N20S (P20138 other isoform, or with tags, fused parts or gaps N20S N20S): as the sequence (P20138 other isoform, or with tags, fused parts or gaps H45Y H45Y) above, with N9S, Y34H counted along it
Sequence of human CD33 extracellular region W22T (P20138 other isoform, or with tags, fused parts or gaps W22T W22T): as the sequence (P20138 other isoform, or with tags, fused parts or gaps H45Y H45Y) above, with W11T, Y34H counted along it
Sequence of human CD33 extracellular region W22R (P20138 other isoform, or with tags, fused parts or gaps W22R W22R): as the sequence (P20138 other isoform, or with tags, fused parts or gaps H45Y H45Y) above, with W11R, Y34H counted along it
Sequence of human CD33 extracellular region N100Q (P20138 other isoform, or with tags, fused parts or gaps N100Q N100Q): as the sequence (P20138 other isoform, or with tags, fused parts or gaps H45Y H45Y) above, with Y34H, N89Q counted along it
Sequence of human CD33 extracellular region F21M (P20138 other isoform, or with tags, fused parts or gaps F21M F21M): as the sequence (P20138 other isoform, or with tags, fused parts or gaps H45Y H45Y) above, with F10M, Y34H counted along it

% WT binding [1]: 80% | % WT binding [2]: 108% | % WT binding [3]: 0% | % WT binding [4]: 80% | % WT binding [5]: 82.8% | % WT binding [6]: 84.1% | % WT binding [7]: 114% | % WT binding [8]: 82.8% | % WT binding [9]: 100% | % WT binding [10]: 104% | % WT binding [11]: 84.6% | % WT binding [12]: 102% | % WT binding [13]: 9.11% | % WT binding [14]: 110% | % WT binding [15]: 28% | % WT binding [16]: 101% | % WT binding [17]: 84.2% | % WT binding [18]: 102% | % WT binding [19]: 100% | % WT binding [20]: 22.6% | % WT binding [21]: 87.9% | % WT binding [22]: 113% | % WT binding [23]: 69.3%
B1: Refmab #4 (antibody, human IgG1, V domains shown)
VH: QVQLVQSGAEVKKPGESVKVSCKASGYTFTNYGMNWVKQAPGQGLEWMGWINTYTGEPTYADKFQGRVTMTTDTSTSTAYMEIRNLGGDDTAVYYCARWSWSDGYYVYFDYWGQGTSVTVSS
VL: DIVMTQSPDSLTVSLGERTTINCKSSQSVLDSSTNKNSLAWYQQKPGQPPKLLLSWASTRESGIPDRFSGSGSGTDFTLTIDSPQPEDSATYYCQQSAHFPITFGQGTRLEIK

% WT binding [1]: 64.8% | % WT binding [2]: 0% | % WT binding [3]: 84.4% | % WT binding [4]: 0% | % WT binding [5]: 0% | % WT binding [6]: 34.4% | % WT binding [7]: 124% | % WT binding [8]: 0% | % WT binding [9]: 100% | % WT binding [10]: 0% | % WT binding [11]: 39% | % WT binding [12]: 0% | % WT binding [13]: 74.3% | % WT binding [14]: 0% | % WT binding [15]: 111% | % WT binding [16]: 0% | % WT binding [17]: 0% | % WT binding [18]: 88.4% | % WT binding [19]: 6.04% | % WT binding [20]: 70.9% | % WT binding [21]: 3.39% | % WT binding [22]: 0% | % WT binding [23]: 35.1%
B2: Refmab #3 (antibody, human IgG1, V domains shown)
VH: QVQLVQSGAEVKKPGSSVKVSCKASGYTFTDYNMHWVRQAPGQGLEWIGYIYPYNGGTGYNQKFKSKATITADESTNTAYMELSSLRSEDTAVYYCARGRPAMDYWGQGTLVTVSS
VL: DIQMTQSPSSLSASVGDRVTITCRASESVDNYGISFMNWFQQKPGKAPKLLIYAASNQGSGVPSRFSGSGSGTDFTLTISSLQPDDFATYYCQQSKEVPWTFGQGTKVEIK
